Assay results from the DeepSol protein solubility set.

Test: soluble on expression in E. coli; label from the status in PepcDB or PDB records

Question: With “MSNVIFSQKLYDTAQMVVDGCMGDADPACQTACPMHTDVKQYVRLAGEGNYQEALDLIRGKLFLPQTLGRICAHPCEAACRRNTEYNQPISVAGIKRFVAEKMDKQSNWDLTVANDSGKKIAIVGAGPAGAQAAIELRRSGHQVTIYEKLNVYGGMMRVGIPEYRLPRDVIDFEYGYLDMLGIETKFGIEIGKDISFNELRLSHDAIILAHGAHVGSIIPLPGHKAQGVFSAVEYLKEVSETRDFPRAGKRIMVIGGGDVAMDCARSSWRIGVDEVHQCSLEEMAKLPASQIEIDESLEEGVLFNAGWGPISIEETDGKVTGIVLKKVISIFDENGNFSPSYSDETRTIAVDTVIFATGQVVADITDGALEQTRGGRYVVDKDTLASSVDGVYVAGDACGGNIVVEAMALGHKAALSIERQFAKRPLTENRDFEKEYNYPSRLDIPLPKGTTDTPRLHGQLRDAEERKQDFKQVDLGFSEEQIKQEASRCLQCTCKLCMNECVMMNDFGDCPKTLFSDFINNKTMDPLLAYSCNACDQCTIVCPKDYPMKEMFLSARVDFVNANGGNSPIPGHKAINMHQKLGFSKFFTMAKRTVASKLEHHHHHH” as the sequence, how does the “soluble on expression in E. coli” value read?
Answer: The value was “not soluble”.

Question: For “MSNWTTYPQKNLTQAEQLAQLIKEADALVVGIGAGMSAADGFTYIGSRFETAFPDFIAKYQFLDMLQASLFDFEDWQEYWAFQSRFVALNYLDQPVGQSYLDLKEILGTKDYHIITTNADNAFWVAGYDPHNIFHIQGEYGLWQCSQHCHQQTYKDDTVIRQMIAEQKNMKVPGQLIPHCPECEAPFEINKRNEEKGMVEDADFHAQKARYEAFLSEHKEGKVLYLEIGVGHTTPQFIKHPFWKRVSENPNALFVTLNHKHYRIPLSIRRQSLELTEHIAQLISATKTIYQKS”, which “soluble on expression in E. coli” value is on record?
Answer: The value was “not soluble”.

Question: For “MSPAQIIRTPHSFPPSFTGTSSSAENSHAQSPQQVLTRAFVASGELNAAFGRTSTASEQDFTSLLGTLQRELERKTLSFPDIAELANQLAEAAKGDQGGHWLGRDEQQTLKGMIDRCKSQLAHTHASDASYDPLAQVCENLKTARLHQSISQMTGEAHAKVRGVPDLLALIQLDPDVLAEKPVGMTSYVNFGSFICMAKARTAELSEDLRSDPNEVALLLHPHADTILELERLPDALAALTENCPDTPTRDDLRSLAKETGELLQQLRANDLLPRSEEVSSYQGETSVRSREVVEPKLTLCQAGGNGQGQLEASSARPESLRYAPTRAASSGSEARVPGQAVGGKIADDAQKVAGLYAEKKRTNWTQANGVAGKISHKIQSLLGMRDAGSRVQAFVAFMADGKGRPGATMLDLGDGWMRATRVIKGEAALIDFQCDSDGKVVDARHPGRFPVLPQGNEREAFKTVLQELKFRGAETLSKVPVYYVNRNTRGYVIPTHGYVVAGHPNRGRKSGAVLYGVGGDPKRGPVALDEKLLGHLVGRSDSKTSSKLSAPVKAAISALAGASFATREDFYDAYCAVRGDAVDPLERHNEISSIYRLLPLSTMEMWPKKADDYRVARPA”, which “soluble on expression in E. coli” value is on record?
Answer: The value was “not soluble”.

Question: With “MSPLWLVVFIVPLASGISLSDCSKKNSCYGSPVNCQPGIDCHVLLRFEDDGTLDVHLQNFTAPDGYVALAYNSNQNAPTEYLICIPHERKRLRGISSQGEIITITEQNMAQYVAQMDTNTFICSFVGKEIPSNFRMQSNFVVSEGLFANESNIPTTYKLEPISTDSVFFHPIAATIGRQDEALSEDEEKLATDLLGKVQRLSDHDSESTDMEAILNEKNRFTIEEFEEKLFSAMSNRRRPIKKFEREEEDQDDDEYSEVEEKESHPKKRREHKKGRHTRVLSDEQEEDYDQYEDDMPSKKRKRPFNSEELENGEDVDFGKKSNKNSQKGTFDGQRQR” as the sequence, how does the “soluble on expression in E. coli” value read?
Answer: The value was “not soluble”.

Question: For “MSPQDTCCPPDSWPALKVDYKPKGKLEDIGKGLKAYVVGNGPRAVIALNDVFGIESGHSKEICDAIADKGFTVVFPDVFRGKPLQVSDMSKLFDELPGWAKQFDYEPALRKDVVEVILPYLHDKLGFKSNDQIALAGFCWGAFMLFHLAGDTKLPGGPFACGVSFHPSVQIEGVFQRDPLQLIDRATCPQLLLPSAGEPDYMKEEGDAIKKLRAKPFGASCGVKTFPSMQHGWVNRGDRNDPQVVKEAQEALQLAVDFMMRHTKPKA”, which “soluble on expression in E. coli” value is on record?
Answer: The value was “not soluble”.

Question: Which “soluble on expression in E. coli” value does the source give for “MSPQTRPDAMSVVQERQVLRVGTLINPTSYYFDHDREQGFEYDLAKRFADRLGVELEMVPRFDVNDLFTMLRRGEVDIVAAGLDRTSTRAQLFRFSPPYDIISQKVVFKQGSRQRPRDLQQITDGEIVVVEGSSHHEFLKSLGDSIPTLKWRATRDHDAVELLQMVISGEVDYTITDSTALDIQRRFHPDLSVAFTVKHDQDIAWALPQGKDDSLFAAVIEYFGEIRSSGRLAHIKEQHFGHVKQFNYVTTSLFIEAVEQVLPGYIETFKEHSGSLDWRLLAAISYQESLWNPRAVSPTGVRGMMMLTLPTAKAMGVKSRLNAEQSIRGGARYLERMLNRVPARIPQPDRTWFAIAAYNIGFGHLEDARIITERQGGNPDRWVDVKKRLPLLRQKQFYRHTRYGFARGDEPVTYVGNIRRFYDTLKYLDEQGRLLEHHHHHH” here?
Answer: Its value is “soluble”.

Question: With “MSPSESGELSIIQELSQRIVEAQRQIRILDSIKWDESVKQEFFKFKGKKLPSIDKAYYDGKPLPFKVKDKQEEFRIILRDAQNQLGQYSTVTRLIRRQCEEYSRAAQMLSLRGTPSFSEMAMELYGSPDDVFYVGGPRMCEMGSLLFDVLKSLQVQLQSQADIKRYTPIQAQEILQERLGKFFDKHPGRVSVMVSDDMIADASAGADSIKLSQNAMFSDRDLRYLEVHEGWVHVGTTLNGALQPNCFFLSKGSPSSSVIQEGLAVITEVVTFSSYPGRMLKITNRVIALDKVTQGADFIDIYRYFLECGLSEEDSYNQSVRIFRGSTPTGGPFTKDLSYAKGFVLIYNYIRFAIGQKRVDTIPLLFTGKLVLDDLPLLGELKEREILTDPVYLPPPFQDLAALSAWMSFSLYLNQFDLNEIQKNFRFLLVLEHHHHHH” as the sequence, how does the “soluble on expression in E. coli” value read?
Answer: Its value is “not soluble”.

Question: Which “soluble on expression in E. coli” value does the source give for “MSPWERILLEEILSEPVRLVKERVRTHTGRELTYVYRPGPVAASFVLPVTERGTALLVRQYRHPTGKFLLEVPAGKVDEGETPEAAARRELREEVGAEAETLIPLPSFHPQPSFTAVVFHPFLALKARVVTPPTLEEGELLESLELPLTEVYALLAKGEIQDASTALTLFYAEPHLKRLGLL” here?
Answer: The value was “soluble”.

Question: Which “soluble on expression in E. coli” value does the source give for “MSQAFTESVKTSLGPNATPRAKKLIASLVQHVHDFARENHLTTEDWLWGVDFINRIGQMSDSRRNEGILVCDIIGLETLVDALTNESEQSNHTSSAILGPFYLPDSPVYPNGGSIVQKAIPTDVKCFVRGKVTDTEGKPLGGAQLEVWQCNSAGFYSQQADHDGPEFNLRGTFITDDEGNYSFECLRPTSYPIPYDGPAGDLLKIMDRHPNRPSHIHWRVSHPGYHTLITQIYDAECPYTNNDSVYAVKDDIIVHFEKVDNKDKDLVGKVEYKLDYDISLATESSIQEARAAAKARQDAEIKL” here?
Answer: Its value is “soluble”.

Question: With “MSQDFVTLVSKDDKEYEISRSAAMISPTLKAMIEGPFRESKGRIELKQFDSHILEKAVEYLNYNLKYSGVSEDDDEIPEFEIPTEMSLELLLAADYLSI” as the sequence, how does the “soluble on expression in E. coli” value read?
Answer: Its value is “soluble”.

Question: For “MSQGDSNPAAIPHAAEDIQGDDRWMSQHNRFVLDCKDKEPDVLFVGDSMVQLMQQYEIWRELFSPLHALNFGIGGDTTRHVLWRLKNGELENIKPKVIVVWVGTNNHENTAEEVAGGIEAIVQLINTRQPQAKIIVLGLLPRGEKPNPLRQKNAKVNQLLKVSLPKLANVQLLDTDGGFVHSDGAISCHDMFDFLHLTGGGYAKICKPLHELIMQLLEETPEEKQTTIA”, which “soluble on expression in E. coli” value is on record?
Answer: The value was “soluble”.

Question: For “MSQLDNNLSVSVYMKGNVNNHEFEYDGIGGGDPNSGQFSLKTKLRGGKPLPFSYDIITMGFQYGFRAFTKYPEGIADYFKGSFPEAFQWNRRIEFEDGGVINMSSDITYKDKVLHGDVWALGVNFPPNGPVMKNEIVMEEPAEETLTAKNGVLVGFCPKAYLLKDGSYYYGHMTTFYRSKKSGQPLPGFHFIKHRLVKTKVEPGFKMVEQAEYATAHVCDLPKPN”, which “soluble on expression in E. coli” value is on record?
Answer: Its value is “soluble”.

Question: For “MSQNSLPSEVSNATIDKELYYHGLLPSEDVRQLLSNNGDFLLRSSEPEPGSPRTHILSVMFNNRLDDINSIKHFVVNFVDGKYFINDKMSFPSIQKMLGTYQRNNTEIKEGCMLVNPIRRQFWELEHDQITIHKKLGEGAFGEVSSGVMKFKKGMKTVQVAIKQVKLDKTGKAKIKDFLAEARTMRKLGHQNIIKFYGVGVLQEPLYLVMELAVNGALDSFLKKNEDLSVDKKTEMILQAAWGLEYIHGKPMLHRDIAARNCLYTDGKVKISDFGLTRNGTVYQIKPNTKSPIRWLAIETIKTMICSEKTDVWAYGVLCWEIFNNAAEPYPGMKPADVATQVANGYRMPPYPHAQAEIQTMMARCNAENPNDRPSMAEIAEILQRVTETPRPNFTAIAKKEAEELLLMNSVTTKTTARRKKSNVKLPKGMSKN”, which “soluble on expression in E. coli” value is on record?
Answer: Its value is “not soluble”.

Question: Which “soluble on expression in E. coli” value does the source give for “MSQRKYFGTDGVRGEVGGPVINAAFALRLGYAAGRVLAREHREHASGRGRNRPQVVIGKDTRISGYMLESALEAGLSAAGIDVLLAGPVPTPAVAYLTRTLRLAAGIVISASHNPYQDNGIKFFSAHGMKLPDDIEAAIEQALDEPLGCVGSEELGRARRMADAQGRYIEFCKSTFPHDLDLNGLKLVVDAAHGAAYNVAPHVFRELGAEVHAIGVSPDGFNINKGVGALHPESLAEEVRARGADLGIALDGDADRLQMVDGTGRIYNGDELLYAIVRERMQRGPVAGVVGTLMTNYGLERQLQQIGVGFERANVGDRYVLEQMQARGWLYGGESSGHLLCLDCHTTGDGTIAALQVLTALRRADATLAEWVADLRMYPQKMINVPLAPGLDWKTHDGLARARGAVEAELAGRGRVLIRASGTEPKLRLMVEAEDEALAQASAQKLADSLGA” here?
Answer: The value was “not soluble”.

Question: Which “soluble on expression in E. coli” value does the source give for “MSQSDLVTIKNLRFSRSQRVIFDDIDLHVPKGKVTAIMGPSGIGKTTLLRLIGGQLLPEQGEIWFDGENIPTLSRRKLYRARKKMSMLFQSGALFTDLNVFDNVAYPLREHTELDEAMIKTLVLLKLEAVGLRGAAYLMPSELSGGMARRAALARAIALDPELIMYDEPFVGQDPITMGVLVELIRNLNRALGVTSVVVSHDVPEVMSIADWVYLLADGKVIAQGSPQALRDNPDPRVQQFLCGDADGPVPFRFPAQPIEQELFSAK” here?
Answer: The value was “not soluble”.

Question: Which “soluble on expression in E. coli” value does the source give for “MSQSGEQRRYTLGEFFSLAGDERMELYEGTIVLMYPVPYEHEGVVANLIAEFRMALKGSPCLVFGSNLQVVLLFEDEQKGTKNVTVLPDLSIICDRTKLRQGRCYGAPDLVVEVLSPSTARNDRLLKRLYYEKAGVREYWLVDYQHKVMEKYVWQSGAFQLEDVYDAANGAAASTVFPEVRFSVKEIFAFLTS” here?
Answer: Its value is “not soluble”.

Question: With “MSQSRHRAEAPPLEREDSGTFSLGKMITAKPGKTPIQVLHEYGMKTKNIPVYECERSDVQIHVPTFTFRVTVGDITCTGEGTSKKLAKHRAAEAAINILKANASICFAVPDPLMPDPSKQPKNQLNPIGSLQELAIHHGWRLPEYTLSQEGGPAHKREYTTICRLESFMETGKGASKKQAKRNAAEKFLAKFSNISPENHISLTNVVGHSLGCTWHSLRNSPGEKINLLKRSLLSIPNTDYIQLLSEIAKEQGFNITYLDIDELSANGQYQCLAELSTSPITVCHGSGISCGNAQSDAAHNALQYLKIIAERK” as the sequence, how does the “soluble on expression in E. coli” value read?
Answer: Its value is “soluble”.

Question: With “MSRDPTLILDESNLVIGKDGRVHYTFTTEDDNPKVRLASKCLGTAHFNQLMIERGDQATSYVAPVVVEGTGNPTGLFKDLKEISLELTDTANSQLWSKIKLTNRGMLQEYYDGKIKTEIVNSARGVATRISEDTDKKLALINDTIDGIRREYRDADRKLSASYQAGIEGLKATMANDKIGLQAEIKASAQGLSQKYDDELRKLSAKITTTSSGTTEAYESKLAGLRAEFTRSNQGTRTELESQISGLRAVQQSTASQISQEIRDREGAVSRVQQSLESYQRRMQDAEENYSSLTHTVRGLQSDVGSPTGKIQSRLTQLAGQIEQRVTRDGVMSIISGAGDSIKLAIQKAGGINAKMSGNEIISAINLNSYGVTIAGKHIALDGNTTVNGTFTTKIAEAIKIRADQIIAGTIDAARIRVINLNASSIVGLDANFIKAKIGYAITDLLEGKVIKARNGAMLIDLNTAKMDFNSDATINFNSKNNALVRKDGTHTAFVHFSNATPKGYTGSALYASIGITSSGDGVNSASSGRFAGLRSFRYATGYNHTAAVDQTEIYGDNVLVVDDFNITRGFKFRPDKMQKMLDMNDLYAAVVALGRCWGHLANVGWNTAHSNFTSAVNRELNNYITKI” as the sequence, how does the “soluble on expression in E. coli” value read?
Answer: Its value is “not soluble”.
